Numbered stars: 1 amine (or outer) side, 2 acyl side, 3 side chain; on linkers, the order of the positions; unused ones are H or OH. Bridge positions count the residues as written; N and C are the ends. Side chains are listed from the residue outwards. Ends that are not written are not given here. * marks the point of attachment. C20 diacid = O=C(O)CCCCCCCCCCCCCCCCCCC(=O)*; γGlu = O=C(O)[C@H](CCC(=O)[*:2])N[*:1]; AEEA = NCCOCCOCC(=O)O
T1: human amylin 3(a) receptor (human calcitonin receptor co-expressed with RAMP-3) (human, UniProt P30988 25-474; O60896 24-148, limits assumed)
T1 sequence (looked up) 1: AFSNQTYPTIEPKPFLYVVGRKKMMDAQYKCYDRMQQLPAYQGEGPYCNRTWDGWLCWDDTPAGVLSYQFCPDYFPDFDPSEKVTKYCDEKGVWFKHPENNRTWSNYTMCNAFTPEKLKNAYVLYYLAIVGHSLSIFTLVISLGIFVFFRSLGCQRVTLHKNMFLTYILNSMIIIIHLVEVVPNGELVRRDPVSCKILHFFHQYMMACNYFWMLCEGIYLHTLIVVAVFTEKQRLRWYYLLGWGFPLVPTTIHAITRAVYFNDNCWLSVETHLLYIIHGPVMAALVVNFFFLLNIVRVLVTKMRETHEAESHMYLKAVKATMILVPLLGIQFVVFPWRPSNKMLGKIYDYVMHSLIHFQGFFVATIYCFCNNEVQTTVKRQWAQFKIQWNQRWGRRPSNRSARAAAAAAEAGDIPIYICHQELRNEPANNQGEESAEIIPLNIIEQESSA
T1 sequence (looked up) 2: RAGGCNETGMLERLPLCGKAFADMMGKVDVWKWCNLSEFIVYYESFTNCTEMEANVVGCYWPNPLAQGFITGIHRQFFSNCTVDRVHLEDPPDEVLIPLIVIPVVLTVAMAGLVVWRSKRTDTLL

B1: N^ε1-[2-[2-[2-[[(4S)-4-carboxy-4-(19-carboxynonadecanoylamino)butanoyl]amino]ethoxy]ethoxy]acetyl]-[Thr14,Arg17,Pro21,Pro27,Pro31]-h-amylin (peptide)
peptide: K([AEEA-γGlu-C20 diacid])CNTATCATQRLATFLRHSSPNFGAIPSSTPVGSNTY-NH2
modifications: disulfide 2-7; N-terminus assumed
SMILES: CC[C@H](C)[C@H](NC(=O)[C@H](C)NC(=O)CNC(=O)[C@H](Cc1ccccc1)NC(=O)[C@H](CC(N)=O)NC(=O)[C@@H]1CCCN1C(=O)[C@H](CO)NC(=O)[C@H](CO)NC(=O)[C@H](Cc1c[nH]cn1)NC(=O)[C@H](CCCNC(=N)N)NC(=O)[C@H](CC(C)C)NC(=O)[C@H](Cc1ccccc1)NC(=O)[C@@H](NC(=O)[C@H](C)NC(=O)[C@H](CC(C)C)NC(=O)[C@H](CCCNC(=N)N)NC(=O)[C@H](CCC(N)=O)NC(=O)[C@@H](NC(=O)[C@H](C)NC(=O)[C@@H]1CSSC[C@H](NC(=O)[C@@H](N)CCCCNC(=O)COCCOCCNC(=O)CC[C@H](NC(=O)CCCCCCCCCCCCCCCCCCC(=O)O)C(=O)O)C(=O)N[C@@H](CC(N)=O)C(=O)N[C@@H]([C@@H](C)O)C(=O)N[C@@H](C)C(=O)N[C@@H]([C@@H](C)O)C(=O)N1)[C@@H](C)O)[C@@H](C)O)C(=O)N1CCC[C@H]1C(=O)N[C@@H](CO)C(=O)N[C@@H](CO)C(=O)N[C@H](C(=O)N1CCC[C@H]1C(=O)N[C@H](C(=O)NCC(=O)N[C@@H](CO)C(=O)N[C@@H](CC(N)=O)C(=O)N[C@H](C(=O)N[C@@H](Cc1ccc(O)cc1)C(N)=O)[C@@H](C)O)C(C)C)[C@@H](C)O
notes: also called compound 75
B2: N^ε1-[(4S)-4-carboxy-4-(19-carboxynonadecanoylamino)butanoyl]-[Arg14,Arg17,Pro21,Pro27,Pro34]-h-amylin (peptide)
peptide: K([γGlu-C20 diacid])CNTATCATQRLARFLRHSSPNFGAIPSSTNVGPNTY-NH2
modifications: disulfide 2-7; N-terminus assumed
SMILES: CC[C@H](C)[C@H](NC(=O)[C@H](C)NC(=O)CNC(=O)[C@H](Cc1ccccc1)NC(=O)[C@H](CC(N)=O)NC(=O)[C@@H]1CCCN1C(=O)[C@H](CO)NC(=O)[C@H](CO)NC(=O)[C@H](Cc1c[nH]cn1)NC(=O)[C@H](CCCNC(=N)N)NC(=O)[C@H](CC(C)C)NC(=O)[C@H](Cc1ccccc1)NC(=O)[C@H](CCCNC(=N)N)NC(=O)[C@H](C)NC(=O)[C@H](CC(C)C)NC(=O)[C@H](CCCNC(=N)N)NC(=O)[C@H](CCC(N)=O)NC(=O)[C@@H](NC(=O)[C@H](C)NC(=O)[C@@H]1CSSC[C@H](NC(=O)[C@@H](N)CCCCNC(=O)CC[C@H](NC(=O)CCCCCCCCCCCCCCCCCCC(=O)O)C(=O)O)C(=O)N[C@@H](CC(N)=O)C(=O)N[C@@H]([C@@H](C)O)C(=O)N[C@@H](C)C(=O)N[C@@H]([C@@H](C)O)C(=O)N1)[C@@H](C)O)C(=O)N1CCC[C@H]1C(=O)N[C@@H](CO)C(=O)N[C@@H](CO)C(=O)N[C@H](C(=O)N[C@@H](CC(N)=O)C(=O)N[C@H](C(=O)NCC(=O)N1CCC[C@H]1C(=O)N[C@@H](CC(N)=O)C(=O)N[C@H](C(=O)N[C@@H](Cc1ccc(O)cc1)C(N)=O)[C@@H](C)O)C(C)C)[C@@H](C)O
notes: also called compound 65
B3: N^ε1-[(4S)-4-carboxy-4-(19-carboxynonadecanoylamino)butanoyl]-[Arg14,Arg17,Pro21,Pro27,Pro31]-h-amylin (peptide)
peptide: K([γGlu-C20 diacid])CNTATCATQRLARFLRHSSPNFGAIPSSTPVGSNTY-NH2
modifications: disulfide 2-7; N-terminus assumed
SMILES: CC[C@H](C)[C@H](NC(=O)[C@H](C)NC(=O)CNC(=O)[C@H](Cc1ccccc1)NC(=O)[C@H](CC(N)=O)NC(=O)[C@@H]1CCCN1C(=O)[C@H](CO)NC(=O)[C@H](CO)NC(=O)[C@H](Cc1c[nH]cn1)NC(=O)[C@H](CCCNC(=N)N)NC(=O)[C@H](CC(C)C)NC(=O)[C@H](Cc1ccccc1)NC(=O)[C@H](CCCNC(=N)N)NC(=O)[C@H](C)NC(=O)[C@H](CC(C)C)NC(=O)[C@H](CCCNC(=N)N)NC(=O)[C@H](CCC(N)=O)NC(=O)[C@@H](NC(=O)[C@H](C)NC(=O)[C@@H]1CSSC[C@H](NC(=O)[C@@H](N)CCCCNC(=O)CC[C@H](NC(=O)CCCCCCCCCCCCCCCCCCC(=O)O)C(=O)O)C(=O)N[C@@H](CC(N)=O)C(=O)N[C@@H]([C@@H](C)O)C(=O)N[C@@H](C)C(=O)N[C@@H]([C@@H](C)O)C(=O)N1)[C@@H](C)O)C(=O)N1CCC[C@H]1C(=O)N[C@@H](CO)C(=O)N[C@@H](CO)C(=O)N[C@H](C(=O)N1CCC[C@H]1C(=O)N[C@H](C(=O)NCC(=O)N[C@@H](CO)C(=O)N[C@@H](CC(N)=O)C(=O)N[C@H](C(=O)N[C@@H](Cc1ccc(O)cc1)C(N)=O)[C@@H](C)O)C(C)C)[C@@H](C)O
notes: also called compound 63
B4: N^ε1-[(4S)-4-carboxy-4-(19-carboxynonadecanoylamino)butanoyl]-[Arg17,Pro21,Pro27,Arg34]-h-amylin (peptide)
peptide: K([γGlu-C20 diacid])CNTATCATQRLANFLRHSSPNFGAIPSSTNVGRNTY-NH2
modifications: disulfide 2-7; N-terminus assumed
SMILES: CC[C@H](C)[C@H](NC(=O)[C@H](C)NC(=O)CNC(=O)[C@H](Cc1ccccc1)NC(=O)[C@H](CC(N)=O)NC(=O)[C@@H]1CCCN1C(=O)[C@H](CO)NC(=O)[C@H](CO)NC(=O)[C@H](Cc1c[nH]cn1)NC(=O)[C@H](CCCNC(=N)N)NC(=O)[C@H](CC(C)C)NC(=O)[C@H](Cc1ccccc1)NC(=O)[C@H](CC(N)=O)NC(=O)[C@H](C)NC(=O)[C@H](CC(C)C)NC(=O)[C@H](CCCNC(=N)N)NC(=O)[C@H](CCC(N)=O)NC(=O)[C@@H](NC(=O)[C@H](C)NC(=O)[C@@H]1CSSC[C@H](NC(=O)[C@@H](N)CCCCNC(=O)CC[C@H](NC(=O)CCCCCCCCCCCCCCCCCCC(=O)O)C(=O)O)C(=O)N[C@@H](CC(N)=O)C(=O)N[C@@H]([C@@H](C)O)C(=O)N[C@@H](C)C(=O)N[C@@H]([C@@H](C)O)C(=O)N1)[C@@H](C)O)C(=O)N1CCC[C@H]1C(=O)N[C@@H](CO)C(=O)N[C@@H](CO)C(=O)N[C@H](C(=O)N[C@@H](CC(N)=O)C(=O)N[C@H](C(=O)NCC(=O)N[C@@H](CCCNC(=N)N)C(=O)N[C@@H](CC(N)=O)C(=O)N[C@H](C(=O)N[C@@H](Cc1ccc(O)cc1)C(N)=O)[C@@H](C)O)C(C)C)[C@@H](C)O
notes: also called compound 79
B5: N^ε1-[(4S)-4-carboxy-4-(19-carboxynonadecanoylamino)butanoyl]-[Arg14,Arg17,Pro21,Pro27]-h-amylin (peptide)
peptide: K([γGlu-C20 diacid])CNTATCATQRLARFLRHSSPNFGAIPSSTNVGSNTY-NH2
modifications: disulfide 2-7; N-terminus assumed
SMILES: CC[C@H](C)[C@H](NC(=O)[C@H](C)NC(=O)CNC(=O)[C@H](Cc1ccccc1)NC(=O)[C@H](CC(N)=O)NC(=O)[C@@H]1CCCN1C(=O)[C@H](CO)NC(=O)[C@H](CO)NC(=O)[C@H](Cc1c[nH]cn1)NC(=O)[C@H](CCCNC(=N)N)NC(=O)[C@H](CC(C)C)NC(=O)[C@H](Cc1ccccc1)NC(=O)[C@H](CCCNC(=N)N)NC(=O)[C@H](C)NC(=O)[C@H](CC(C)C)NC(=O)[C@H](CCCNC(=N)N)NC(=O)[C@H](CCC(N)=O)NC(=O)[C@@H](NC(=O)[C@H](C)NC(=O)[C@@H]1CSSC[C@H](NC(=O)[C@@H](N)CCCCNC(=O)CC[C@H](NC(=O)CCCCCCCCCCCCCCCCCCC(=O)O)C(=O)O)C(=O)N[C@@H](CC(N)=O)C(=O)N[C@@H]([C@@H](C)O)C(=O)N[C@@H](C)C(=O)N[C@@H]([C@@H](C)O)C(=O)N1)[C@@H](C)O)C(=O)N1CCC[C@H]1C(=O)N[C@@H](CO)C(=O)N[C@@H](CO)C(=O)N[C@H](C(=O)N[C@@H](CC(N)=O)C(=O)N[C@H](C(=O)NCC(=O)N[C@@H](CO)C(=O)N[C@@H](CC(N)=O)C(=O)N[C@H](C(=O)N[C@@H](Cc1ccc(O)cc1)C(N)=O)[C@@H](C)O)C(C)C)[C@@H](C)O
notes: also called compound 83

Target: T1, human amylin 3(a) receptor (human …)
Assay: cell-based or functional assay

Binder | Ratio hCT/hAmylin funct. (hCTR EC50 over hAmylin-R EC50) | hAmylin-R funct. EC50 (pM)
B1 | 30.6 | 296 pM
B2 | 38.6 | 242 pM
B3 | 139 | 37 pM
B4 | 24.5 | 161 pM
B5 | 41.6 | 405 pM

— patent US20140087995A1 (published 2014)
